Experimental data from patent publication US20240252667A1.

What was measured:
[1] = target: human insulin receptor extracellular domain (HIR ECD) (human) (UniProt P06213); test: ELISA, HIR ECD plated (HIR receptor assay)
[2] = target: human insulin receptor extracellular domain (HIR ECD) (human) (UniProt P06213); test: ELISA, HIR ECD plated; against HIR Ab alone
[3] = target: human insulin receptor extracellular domain (HIR ECD) (human) (UniProt P06213); test: ELISA, HIR ECD plated, biotinylated goat anti-human IgG detection

EC50 [1] [nM]	reduction in receptor binding affinity [2] [%]	EC50 [3] [nM]	Substance
4.8	95	–	GUSB-HIR Ab fusion protein (GUSB fused to the amino terminus of the HIR Ab heavy chain) (from UniProt P08236 23-633) (antibody)
–	–	0.81	HIR Ab-GUSB fusion protein (GUSB fused to the carboxyl terminus of the HIR Ab heavy chain) (from UniProt P08236 23-633) (antibody)
